Measurements reported in publication PMC6753332.

Molecular target: neuropilin-1 (NRP1), wildtype, expressed on BW cells (human) (UniProt O14786)
Experiment: flow cytometry on cells; saturation: BW NRP1 cells with increasing concentrations of monomeric rh-C4Ad, detected with monoclonal C4d antibody and PE goat anti-mouse IgG; Langmuir isotherm for single-class 1:1 binding; apparent KD

“recombinant human C4Ad (rh-C4Ad) (domain or fragment)” showed a Kd of 0.71 µM.
